# Tests used:
# [1] = target: Middle East respiratory syndrome papain-like protease (MERS PLpro), recombinant (Middle East respiratory syndrome coronavirus)
# [2] = target: human UCH-L3, recombinant (human) (UniProt P15374)
# Sequence of UniProt P15374 (P15374 whole entry): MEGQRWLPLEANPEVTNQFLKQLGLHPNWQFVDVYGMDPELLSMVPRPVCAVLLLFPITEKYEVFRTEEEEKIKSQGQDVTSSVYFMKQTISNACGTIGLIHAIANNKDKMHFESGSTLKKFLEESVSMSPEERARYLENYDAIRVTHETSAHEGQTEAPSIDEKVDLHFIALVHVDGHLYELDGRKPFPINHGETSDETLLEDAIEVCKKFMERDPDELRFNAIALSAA
substance,measurement,setting,value
Ub-ACC (ubiquitin with C-terminal ACC fluorophore) (from UniProt P0CG48 1-76),KM of hydrolysis of the ACC-labeled substrate (release of ACC),[1],3.55 µM
same,kcat of hydrolysis of the ACC-labeled substrate,[1],3.68 s^–1
same,kcat/KM of hydrolysis of the ACC-labeled substrate,[1],1e+06 M^–1 s^–1
same,KM of hydrolysis of the ACC-labeled substrate (release of ACC),[2],0.048 µM
same,kcat of hydrolysis of the ACC-labeled substrate,[2],0.107 s^–1
